Drawing on US20230124669A1 (ADAGENE, published 2023), this text covers Kd for six molecules.

The target in test [1] is T1, Human CD137 (SPR analyte) (human, UniProt Q07011 24-186, limits assumed).
T1 construct: also called CD137H
The test is described as follows: SPR (Biacore T200), antibody captured by anti-human IgG on CM5 chip, antigen injected as analyte, 1:1 Langmuir fit. The method, then: (§1) Biacore T200 (GE Healthcare) was used as a high performance system for real-time biomolecular interaction analysis, using surface plasmon resonance technology (“SPR”). During the measurement, anti-human IgG monoclonal antibody from the Human Antibody Capture Kit provided by Biacore was immobilized on CM5 chips, and IgG sample was injected onto sensor chip. Analytes were injected onto IgG captured flow cell for binding kinetic analysis in HBS-EP buffer.

In another test the target is T2, Human PDL1 (SPR analyte) (human, UniProt Q9NZQ7 19-238, limits assumed).
T2 construct: also called PDL1H
The test is described as above. How it is done: as §1

T2 sequence (Q9NZQ7 19-238 limits assumed): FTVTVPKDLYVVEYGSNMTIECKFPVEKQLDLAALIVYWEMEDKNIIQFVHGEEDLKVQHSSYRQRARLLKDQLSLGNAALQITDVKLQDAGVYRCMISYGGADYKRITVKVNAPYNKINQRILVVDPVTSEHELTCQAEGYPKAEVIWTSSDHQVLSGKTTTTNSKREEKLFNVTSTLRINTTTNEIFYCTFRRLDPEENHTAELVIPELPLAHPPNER

B1: TY22362 (bispecific antibody, human IgG4 S228P, kappa)
heavy: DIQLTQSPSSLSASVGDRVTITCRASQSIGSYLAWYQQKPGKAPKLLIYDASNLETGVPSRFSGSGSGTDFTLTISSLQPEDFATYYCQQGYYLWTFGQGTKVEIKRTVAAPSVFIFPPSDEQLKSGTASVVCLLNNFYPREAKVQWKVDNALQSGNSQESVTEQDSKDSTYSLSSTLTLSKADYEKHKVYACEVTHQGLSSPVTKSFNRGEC
light: EVQLVESGGGLVQPGGSLRLSCAASGFSLSTGGVGVGWIRQAPGKGLEWLALIDWADDKYYSPSLKSRLTISRDNSKNTLYLQLNSLRAEDTAVYYCARGGSDTVIGDWFAYWGQGTLVTVSSASTKGPSVFPLAPCSRSTSESTAALGCLVKDYFPEPVTVSWNSGALTSGVHTFPAVLQSSGLYSLSSVVTVPSSSLGTKTYTCNVDHKPSNTKVDKRVESKYGPPCPPCPAPEFLGGPSVFLFPPKPKDTLMISRTPEVTCVVVDVSQEDPEVQFNWYVDGVEVHNAKTKPREEQFNSTYRVVSVLTVLHQDWLNGKEYKCKVSNKGLPSSIEKTISKAKGQPREPQVYTLPPSQEEMTKNQVSLTCLVKGFYPSDIAVEWESNGQPENCYKTTPPVLDCDGSFFLYSRLTVDKSRWQEGNVFSCSVMHEALHNHYTQKSLSLSLGSGGGSGGGGSEVQLVESGGGLVQPGGSLRLSCAASGYSISSGYYWGWIRQAPGKCLEWIGIIYPSGGGTNYAQKFQGRVTISRDNSKNTLYLQLNSLRAEDTAVYYCARGGGLGFDYWGQGTLVTVSSGGGGSGGGGSGGGGSGGGGSDIQLTQSPSSLSASVGDRVTITCRASQSIPSFLNWYQQKPGKAPKLLIYAASSLQSGVPSRFSGSGSGTDFTLTISSLQPEDFATYYCQHYISWPRQFTFGCGTKVEIKR
notes: Morrison format: anti-CD137 Fab, anti-PDL1 scFv; also called CD137 × PDL1 bispecific antibody, format TYF08
B1: the Kd was 2.8 nM in test [1] and 40.3 nM in the test with Human PDL1 (SPR analyte).

B2: TY22359 (bispecific antibody, human IgG1, kappa, N297A)
heavy: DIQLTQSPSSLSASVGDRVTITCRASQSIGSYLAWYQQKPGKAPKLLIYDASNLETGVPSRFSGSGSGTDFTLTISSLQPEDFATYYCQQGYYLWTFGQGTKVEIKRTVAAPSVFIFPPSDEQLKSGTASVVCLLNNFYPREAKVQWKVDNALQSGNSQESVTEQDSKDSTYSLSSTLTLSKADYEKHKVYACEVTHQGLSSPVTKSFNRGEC
light: EVQLVESGGGLVQPGGSLRLSCAASGFSLSTGGVGVGWIRQAPGKGLEWLALIDWADDKYYSPSLKSRLTISRDNSKNTLYLQLNSLRAEDTAVYYCARGGSDTVIGDWFAYWGQGTLVTVSSASTKGPSVFPLAPSSKSTSGGTAALGCLVKDYFPEPVTVSWNSGALTSGVHTFPAVLQSSGLYSLSSVVTVPSSSLGTQTYICNVNHKPSNTKVDKRVEPKSCDKTHTCPPCPAPELLGGPSVFLFPPKPKDTLMISRTPEVTCVVVDVSHEDPEVKFNWYVDGVEVHNAKTKPREEQYASTYRVVSVLTVLHQDWLNGKEYKCKVSNKALPAPIEKTISKAKGQPREPQVYTLPPSREEMTKNQVSLTCLVKGFYPSDIAVEWESNGQPENCYKTTPPVLDCDGSFFLYSKLTVDKSRWQQGNVFSCSVMHEALHNHYTQKSLSLSPGSGGGSGGGGSEVQLVESGGGLVQPGGSLRLSCAASGYSISSGYYWGWIRQAPGKCLEWIGIIYPSGGGTNYAQKFQGRVTISRDNSKNTLYLQLNSLRAEDTAVYYCARGGGLGFDYWGQGTLVTVSSGGGGSGGGGSGGGGSGGGGSDIQLTQSPSSLSASVGDRVTITCRASQSIPSFLNWYQQKPGKAPKLLIYAASSLQSGVPSRFSGSGSGTDFTLTISSLQPEDFATYYCQHYISWPRQFTFGCGTKVEIKR
notes: Morrison format: anti-CD137 Fab, anti-PDL1 scFv; also called CD137 × PDL1 bispecific antibody, format TYF05; Format 5
B2: the values for the Kd (in test [1]; with Human PDL1 (SPR analyte)) were 2.7 nM and 29.8 nM, respectively.

B3: TY22176 (bispecific antibody, human IgG1, kappa, N297A)
heavy: DIQLTQSPSSLSASVGDRVTITCRASQSIPSFLNWYQQKPGKAPKLLIYAASSLQSGVPSRFSGSGSGTDFTLTISSLQPEDFATYYCQHYISWPRQFTFGQGTKVEIKRTVAAPSVFIFPPSDEQLKSGTASVVCLLNNFYPREAKVQWKVDNALQSGNSQESVTEQDSKDSTYSLSSTLTLSKADYEKHKVYACEVTHQGLSSPVTKSFNRGEC
light: EVQLVESGGGLVQPGGSLRLSCAASGYSISSGYYWGWIRQAPGKGLEWIGIIYPSGGGTNYAQKFQGRVTISRDNSKNTLYLQLNSLRAEDTAVYYCARGGGLGFDYWGQGTLVTVSSASTKGPSVFPLAPSSKSTSGGTAALGCLVKDYFPEPVTVSWNSGALTSGVHTFPAVLQSSGLYSLSSVVTVPSSSLGTQTYICNVNHKPSNTKVDKRVEPKSCDKTHTCPPCPAPELLGGPSVFLFPPKPKDTLMISRTPEVTCVVVDVSHEDPEVKFNWYVDGVEVHNAKTKPREEQYASTYRVVSVLTVLHQDWLNGKEYKCKVSNKALPAPIEKTISKAKGQPREPQVYTLPPSREEMTKNQVSLTCLVKGFYPSDIAVEWESNGQPENCYKTTPPVLDCDGSFFLYSKLTVDKSRWQQGNVFSCSVMHEALHNHYTQKSLSLSPGSGGGSEVQLVESGGGLVQPGGSLRLSCAASGFSLSTGGVGVGWIRQAPGKCLEWLALIDWADDKYYSPSLKSRLTISRDNSKNTLYLQLNSLRAEDTAVYYCARGGSDTVIGDWFAYWGQGTLVTVSSGGGGSGGGGSGGGGSGGGGSDIQLTQSPSSLSASVGDRVTITCRASQSIGSYLAWYQQKPGKAPKLLIYDASNLETGVPSRFSGSGSGTDFTLTISSLQPEDFATYYCQQGYYLWTFGCGTKVEIKR
notes: Morrison format: anti-PDL1 Fab, anti-CD137 scFv; IgG1 with N390C:S400'C and N297A; also called PDL1 × CD137 bispecific antibody, format TYF04
As to B3, the figures for the Kd (in test [1]; with Human PDL1 (SPR analyte)) were 7.1 nM and 8.1 nM, respectively.

B4: TY22165 (bispecific antibody, human IgG4 S228P, kappa)
heavy: B3 heavy
light: EVQLVESGGGLVQPGGSLRLSCAASGYSISSGYYWGWIRQAPGKGLEWIGIIYPSGGGTNYAQKFQGRVTISRDNSKNTLYLQLNSLRAEDTAVYYCARGGGLGFDYWGQGTLVTVSSASTKGPSVFPLAPCSRSTSESTAALGCLVKDYFPEPVTVSWNSGALTSGVHTFPAVLQSSGLYSLSSVVTVPSSSLGTKTYTCNVDHKPSNTKVDKRVESKYGPPCPPCPAPEFLGGPSVFLFPPKPKDTLMISRTPEVTCVVVDVSQEDPEVQFNWYVDGVEVHNAKTKPREEQFNSTYRVVSVLTVLHQDWLNGKEYKCKVSNKGLPSSIEKTISKAKGQPREPQVYTLPPSQEEMTKNQVSLTCLVKGFYPSDIAVEWESNGQPENCYKTTPPVLDCDGSFFLYSRLTVDKSRWQEGNVFSCSVMHEALHNHYTQKSLSLSLGSGGGSEVQLVESGGGLVQPGGSLRLSCAASGFSLSTGGVGVGWIRQAPGKCLEWLALIDWADDKYYSPSLKSRLTISRDNSKNTLYLQLNSLRAEDTAVYYCARGGSDTVIGDWFAYWGQGTLVTVSSGGGGSGGGGSGGGGSGGGGSDIQLTQSPSSLSASVGDRVTITCRASQSIGSYLAWYQQKPGKAPKLLIYDASNLETGVPSRFSGSGSGTDFTLTISSLQPEDFATYYCQQGYYLWTFGCGTKVEIKR
notes: Morrison format: anti-PDL1 Fab, anti-CD137 scFv; IgG4(S228P) with N390C:S400'C; also called PDL1 × CD137 bispecific antibody, format TYF07
B4: the Kd in test [1] was 5.2 nM; in the test with Human PDL1 (SPR analyte), 7.7 nM.

B5: TY22177 (bispecific antibody, human IgG1, kappa, N297A)
heavy: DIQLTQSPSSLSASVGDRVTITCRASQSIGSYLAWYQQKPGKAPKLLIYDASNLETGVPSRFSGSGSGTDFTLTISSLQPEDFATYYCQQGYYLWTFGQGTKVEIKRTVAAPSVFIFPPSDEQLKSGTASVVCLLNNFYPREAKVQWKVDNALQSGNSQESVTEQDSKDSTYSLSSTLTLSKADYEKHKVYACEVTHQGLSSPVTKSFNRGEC
light: EVQLVESGGGLVQPGGSLRLSCAASGFSLSTGGVGVGWIRQAPGKGLEWLALIDWADDKYYSPSLKSRLTISRDNSKNTLYLQLNSLRAEDTAVYYCARGGSDTVIGDWFAYWGQGTLVTVSSASTKGPSVFPLAPSSKSTSGGTAALGCLVKDYFPEPVTVSWNSGALTSGVHTFPAVLQSSGLYSLSSVVTVPSSSLGTQTYICNVNHKPSNTKVDKRVEPKSCDKTHTCPPCPAPELLGGPSVFLFPPKPKDTLMISRTPEVTCVVVDVSHEDPEVKFNWYVDGVEVHNAKTKPREEQYASTYRVVSVLTVLHQDWLNGKEYKCKVSNKALPAPIEKTISKAKGQPREPQVYTLPPSREEMTKNQVSLTCLVKGFYPSDIAVEWESNGQPENCYKTTPPVLDCDGSFFLYSKLTVDKSRWQQGNVFSCSVMHEALHNHYTQKSLSLSPGSGGGSEVQLVESGGGLVQPGGSLRLSCAASGYSISSGYYWGWIRQAPGKCLEWIGIIYPSGGGTNYAQKFQGRVTISRDNSKNTLYLQLNSLRAEDTAVYYCARGGGLGFDYWGQGTLVTVSSGGGGSGGGGSGGGGSGGGGSDIQLTQSPSSLSASVGDRVTITCRASQSIPSFLNWYQQKPGKAPKLLIYAASSLQSGVPSRFSGSGSGTDFTLTISSLQPEDFATYYCQHYISWPRQFTFGCGTKVEIKR
notes: Morrison format: anti-CD137 Fab, anti-PDL1 scFv; IgG1 with N390C:S400'C and N297A; also called CD137 × PDL1 bispecific antibody, format TYF04
For the molecule B5, the results for the Kd (in test [1]; with Human PDL1 (SPR analyte)) were 7 nM and 33.4 nM, respectively.

B6: TY22166 (bispecific antibody, human IgG4 S228P, kappa)
heavy: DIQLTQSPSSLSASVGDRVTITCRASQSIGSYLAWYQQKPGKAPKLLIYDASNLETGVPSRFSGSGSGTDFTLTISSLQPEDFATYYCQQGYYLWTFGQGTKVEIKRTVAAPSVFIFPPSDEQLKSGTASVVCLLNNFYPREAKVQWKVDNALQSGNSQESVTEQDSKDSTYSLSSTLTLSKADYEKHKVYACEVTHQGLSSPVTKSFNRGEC
light: EVQLVESGGGLVQPGGSLRLSCAASGFSLSTGGVGVGWIRQAPGKGLEWLALIDWADDKYYSPSLKSRLTISRDNSKNTLYLQLNSLRAEDTAVYYCARGGSDTVIGDWFAYWGQGTLVTVSSASTKGPSVFPLAPCSRSTSESTAALGCLVKDYFPEPVTVSWNSGALTSGVHTFPAVLQSSGLYSLSSVVTVPSSSLGTKTYTCNVDHKPSNTKVDKRVESKYGPPCPPCPAPEFLGGPSVFLFPPKPKDTLMISRTPEVTCVVVDVSQEDPEVQFNWYVDGVEVHNAKTKPREEQFNSTYRVVSVLTVLHQDWLNGKEYKCKVSNKGLPSSIEKTISKAKGQPREPQVYTLPPSQEEMTKNQVSLTCLVKGFYPSDIAVEWESNGQPENCYKTTPPVLDCDGSFFLYSRLTVDKSRWQEGNVFSCSVMHEALHNHYTQKSLSLSLGSGGGSEVQLVESGGGLVQPGGSLRLSCAASGYSISSGYYWGWIRQAPGKCLEWIGIIYPSGGGTNYAQKFQGRVTISRDNSKNTLYLQLNSLRAEDTAVYYCARGGGLGFDYWGQGTLVTVSSGGGGSGGGGSGGGGSGGGGSDIQLTQSPSSLSASVGDRVTITCRASQSIPSFLNWYQQKPGKAPKLLIYAASSLQSGVPSRFSGSGSGTDFTLTISSLQPEDFATYYCQHYISWPRQFTFGCGTKVEIKR
notes: Morrison format: anti-CD137 Fab, anti-PDL1 scFv; IgG4(S228P) with N390C:S400'C; also called CD137 × PDL1 bispecific antibody, format TYF07
Regarding B6, the figures for the Kd (in test [1]; in the test with Human PDL1 (SPR analyte)) were 3 nM and 42 nM, respectively.

The term Kd denotes the concentration at which binding is half-saturated.
